# In PMC11564096, “Structural and mechanistic insights into Streptococcus pneumoniae NADPH oxidase” (Nature Structural & Molecular Biology, 2024):
# Substrate: NC(=O)C1=CN([C@@H]2O[C@H](COP(=O)(O)OP(=O)(O)OC[C@H]3O[C@@H](n4cnc5c(N)ncnc54)[C@H](O)[C@@H]3O)[C@@H](O)[C@H]2O)C=CC1
# Assay: purified protein
# Format: biochemical, Streptococcus pneumoniae
# Conditions: 100 µM bovine cytochrome c, 0.1 µM SpNOX, 1 µM FAD, 50 mM Tris pH 7.0, 250 mM NaCl, room temperature, aerobic
protein,measurement,value
"SpNOX (Streptococcus pneumoniae NOX) (Streptococcus pneumoniae R6) (protein, residues 2-400, N-terminal 6xHis-PreScission tag cleaved, E. coli C41(DE3), LMNG micelles, monomer, 46 kDa, two b-type hemes and FAD) EFSMKSVKGLLFIIASFILTLLTWMNTSPQFMIPGLALTSLSLTFILATRLPLLESWFHSLEKVYTVHKFTAFLSIILLIFHNFSMGGLWGSRLAAQFGNLAIYIFASIILVAYLGKYIQYEAWRWIHRLVYLAYILGLFHIYMIMGNRLLTFNLLSFLVGSYALLGLLAGFYIIFLYQKISFPYLGKITHLKRLNHDTREIQIHLSRPFNYQSGQFAFLKIFQEGFESAPHPFSISGGHGQTLYFTVKTSGDHTKNIYDNLQAGSKVTLDRAYGHMIIEEGRENQVWIAGGIGITPFISYIREHPILDKQVHFYYSFRGDENAVYLDLLRNYAQKNPNFELHLIDSTKDGYLNFEQKEVPEHATVYMCGPISMMKALAKQIKKQNPKTELIYEGFKFK",Km,3.41 µM
same,kcat,3.33 s⁻¹
